{
  "source": "patent US20140044735A1",
  "about": "(ISNERM INSTITUT NATIONAL DE LA SANTE ET DE LA RECHERCHE …, published 2014)",
  "key": {"[1]": {"molecular_target": "CD47 on mouse erythrocytes (wild type and SAD transgenic mice) (mouse) (UniProt Q61735)", "assay": "cell-based or functional assay"}, "[2]": {"molecular_target": "CD47 on mouse erythrocytes (wild type and SAD transgenic mice) (mouse) (UniProt Q61735)", "assay": "flow cytometry of fresh mouse erythrocytes stained with the FITC-coupled antibody"}, "[3]": {"molecular_target": "T1, CD47 on mouse erythrocytes (wild type and SAD transgenic mice) (mouse, UniProt Q61735 19-303)", "T1 sequence (looked up)": "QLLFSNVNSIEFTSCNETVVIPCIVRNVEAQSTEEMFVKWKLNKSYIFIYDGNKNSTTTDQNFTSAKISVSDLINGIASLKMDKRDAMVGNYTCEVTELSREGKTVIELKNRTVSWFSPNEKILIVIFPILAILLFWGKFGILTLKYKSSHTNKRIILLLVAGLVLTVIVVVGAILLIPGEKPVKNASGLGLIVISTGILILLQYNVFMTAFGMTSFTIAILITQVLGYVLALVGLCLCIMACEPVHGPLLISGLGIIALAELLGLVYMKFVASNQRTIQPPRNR", "assay": "cell-based or functional assay"}},
  "note": "Where “and” joins values, the source holds several entries; their conditions need not be identical. Equal values may be shown once.",
  "data": [
    {"molecule": "Human recombinant TSP1 (thrombospondin-1) (from UniProt P07996 19-1170) (ligand)", "values": [
      {"measurement": "echinocytes among SAD mouse erythrocytes under shear", "setting": "[1]", "result": 50, "unit": "%"},
      {"measurement": "proportion of echinocytes among wild type mouse erythrocytes under shear", "setting": "[1]", "result": "> 10 fold and 30%"}
    ]},
    {"molecule": "mouse-specific fluoroisothiocyanate (FITC)-coupled anti-CD47 monoclonal antibody (clone mIAP301; BD Biosciences)", "values": [
      {"measurement": "CD47 expression by FACS (percent)", "setting": "[2]", "result": 85, "unit": "%"}
    ]},
    {"molecule": "RFYVVMWK", "note": "[4N1-1 synthetic peptide (RFYVVMWK), TSP1 carboxyterminal peptide]", "values": [
      {"measurement": "MP shedding by SAD mouse erythrocytes", "setting": "[3]", "result": 40, "unit": "fold"},
      {"measurement": "MP shedding by wild type mouse erythrocytes", "setting": "[3]", "result": 16, "unit": "fold"},
      {"measurement": "echinocytosis of wild type mouse erythrocytes", "setting": "[3]", "result": 2, "unit": "fold"}
    ]}
  ]
}
